Measurements from paper PMC5110118.

Target: C-terminal NanoLuc luciferase fragment, residues 66–171 (66C), bacterial construct
Assay: split reporter

## N-terminal NanoLuc luciferase fragment, residues 1–65 (N65), bacterial construct (domain or fragment)
  fold increase in luminescence over 66C alone: 10 fold
